Measurements: the DeepSol protein solubility set

assay: soluble on expression in E. coli; label from the status in PepcDB or PDB records

Sequence	soluble on expression in E. coli
MKRFFLFILPVLLVITACKAPEEIVLPDKNLNVADRTIVYKKEPYTGKLVLPKSPRGNEGYMYVKDGHLEGNAEIKNEKDGFLLKYNINAGKFQGELLYKSGDGQLTLNVDKGVILSMQMSNDKEKTEYNFTFTDGLANGVFRHENKKNTAEIVFTDGMAKIENDGNIDVEAKFSINQNTWMITMESFVDGKSYSKTEKFLGINLETIEDIVFSSIEDYKTQK	not soluble
MKRFGRFAGIALVLVVAALTARSCFSHDLIVRLSDRKEISFKQMMGDLRKVAVIYVGEVHDNPDHHVLQLRIIRGLHRAGVPLAIGMEMFTAGSQQELDRWVAGQTGTAAFQRIYRREWNLPWSLYGDILLFARDKRIPLIGLNVPRDITRKVGREGFASLTEDERRKLPPNITCDVDESYMAMIHRSYSSHGLSANTFRNFCEAQMLWNKSMAYHMVEYLRKNPGRTVVVITGGGHAIRGGMPVQVDRERPGLSSRVVLPDPVVRNGRIKAEEADYLWLSHLEHHHHHH	not soluble
MKRFLIITILALSVFSLALTLDDAYRLANITQRKLIMMFSSPTCYYCNLFKKEVFPKEDFQEILIPNFVFVELYATDEKTTLFAKEVLGEESVSYRDLFAGFGVRGTPTFFFFKGKEGLGYLPGYVDKDNFIKILKYVAQELKEDFQTYLKKDDPFVGEPLIIEIFKEDADFVLEKDENAVKVDTVPNEVRRDRIYVTDSPDVAKTLQEKGALRVLLAK	not soluble
MKRIGIDVGGTNTDAVLIDGDTIVASIKVPTTQDVLSGVKAALAHVAGHVGAADRPIDAVMIGTTHFTNAVVERARLERVAALRIALPTGSSLPPMCDWPKDLHDAVDPLIFMVHGGHEYDGSPLVPMIPDEIREAAMKIRDAGITSIAISATFSPLTTECEVRAAEIVRSVIPDARITLSHTLGRIGLLERENVALLNAALQTLGKTTVQAFSDALREAGVKAPFYLTQNDGTVSLADVAAANPVHSFASGPTNSMRGAAFLTGLSDAMVVDVGGTTSDIGCLVGGFPREANNIVHIGGVRTLFRMPDLLPIALGGGTIVDPETGKIGPRSVGYRILTEARVFGGETLTTSDIAVAAGLIEIGDRDRVKDLDSTFVQATLQRIRNMVADSFDQMKTSAEDVPLVAVGGGAFLIPETVPGASDVLRVENAGVANALGAAMAQVSGEVDQVFSGLSRDEALAKAETEAQNAAVASGAERTSLKTLEVEDIPIAYLPGGARRVRVRVIGDIAFHLEHHHHHH	not soluble
MKRILVSGGAGFIGSHLCTRLVNEGHDVICLDNFFTGSKDNIKHLMGNHHFEVVRHDVTYPYSAEVDEIYNLACPASPIHYQHDPIQTAKTSVMGAINMLGLAMRLDAKILQASTSEVYGDPIIHPQPESYWGNVNPVGYRSCYDEGKRCAETLFMDYYRQNQTRIKIIRIFNTYGPRMLPNDGRVVSNFIIQALNNEDITIYGDGKQTRSFQYIDDLIEGMVRMMDTEDDFTGPINIGNPNEFPVLELAERVIRMTGSTSKIVFKPLPTDDPKQRQPDIKLAKEKLGWQPTVELEDGLKRMIEYFKNV	not soluble
MKRIVILGGGFGGLYTALRVSQLPWETQQKPEIVLVDQSDRFLFSPLLYELLTGELQSWEIAPPFIELLEGTGIRFYQAVVSGIDIDQQRVHLQDGPEIPYDRLVLTLGGETPLDLVPGAISYAYPFRTIADTYRLEERLRVLEESDAEKIRVAIVGAGYSGVELACKLADRLGERGRFRLVEISDQILRTSPDFNREAAKKALDAKGVFIDLETKVESIGQNTISLEYKNQVDTIPVDLVIWTVGTRVTNVVKSLPFKQNQRGQITNTPTLQVLDHPDIFALGDLADCIDAEGQQVPATAQAAFQQADYAAWNIWASLTQRPLLPFRLEHHHHHH	soluble
MKRKESAFKSMLKQAAPPIELDAVWEDIRERFVKEPAFEDITLESERKRIFKDFMHVLEHECQH	soluble
MKRLQAFKFQLRPGGQQECEMRRFAGACRFVFNRALARQNENHEAGNKYIPYGKMASWLVEWKNATETQWLKDSPSQPLQQSLKDLERAYKNFFRKRAAFPRFKKRGQNDAFRYPQGVKLDQENSRIFLPKLGWMRYRNSRQVTGVVKNVTVSQSCGKWYISIQTESEVSTPVHPSASMVGLDAGVAKLATLSDGTVFEPVNSFQKNQKKLARLQRQLSRKVKFSNNWQKQKRKIQRLHSCIANIRRDYLHKVTTAVSKNHAMIVIEDLKVSNMSKSAAGTVSQPGRNVRAKSGLNRSILDQGWYEMRRQLAYKQLWRGGQVLAVPPAYTSQRCAYCGHTAKENRLSQSKFRCQVCGYTANADVNGARNILAAGHAVLACGEMVQSGRPLKQEPTEMIQATALEHHHHHH	not soluble
